Test results taken from the supplement of paper PMC9732359.
± gives the uncertainty stated by the source.

Experiment: protein stability index of a GFP-peptide fusion (yeast GPS) (PSI 1-4); higher = more stable; sorted into four equal gates, so the index is relative within each strain
Summary of the method: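 Plasmids in a pooled yeast library fused tiled 17-residue yeast protein peptides downstream of GFP and also expressed Cherry. Mid-log cultures grown without leucine were sorted into four equal gates by GFP/Cherry fluorescence ratio. Each gate's plasmids were PCR-amplified and Illumina-sequenced, and reads were matched to strains by barcodes. The protein stability index is derived by multiplying each gate's read frequency by its gate number and summing the results.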

Row | Sequence | protein stability index (doa10∆) | protein stability index (pdr5∆) | protein stability index (san1∆) | protein stability index (ubr1∆)
1 | PFQVSSFVKETKLHSGD [SRB8] | 2.96 ± 0.088 | 2.77 ± 0.082 | 2.8 ± 0.085 | 2.91 ± 0.061
2 | PFSEGVTFSVMPPKKSW [SMC4] | 2.48 ± 0.091 | 2.03 ± 0.074 | 2.2 ± 0.11 | 2.57 ± 0.077
3 | PFTASQSNINTNAPLRT [YIL149C/MLP2] | 2.37 ± 0.12 | 2.49 ± 0.089 | 2.11 ± 0.075 | 2.08 ± 0.053
4 | PFTNEAHMWPRVHDQPL [POP3] | – | 1.36 ± 0.24 | – | –
5 | PFVLAENMWPFSYQEVE [CDC53] | 1.6 ± 0.037 | 1.9 ± 0.04 | 1.56 ± 0.051 | 2.25 ± 0.028
6 | PGAKPLQVGDVVSTTAV [FAS1] | 2.51 ± 0.075 | 2.42 ± 0.086 | 2.48 ± 0.077 | 2.66 ± 0.065
7 | PGGQAALRALARSGLRI [RPS14A] | 2.15 ± 0.032 | 2.35 ± 0.029 | 2.21 ± 0.04 | 1.92 ± 0.022
8 | PGNNIPYMNHKNTSSMD [GAL11] | – | 2.11 ± 0.14 | 2.16 ± 0.21 | –
9 | PGNRNADNVDKILEQFE [FAS2] | 1.63 ± 0.11 | 1.53 ± 0.18 | 2.5 ± 0.19 | 2.5 ± 0.087
10 | PGPYPNEQAARAANQGA [CYT1] | 2.35 ± 0.053 | 2.68 ± 0.045 | 2.33 ± 0.059 | 2.3 ± 0.05
11 | PGSRASSRFIKGGSLYG [RPN2] | 2.19 ± 0.12 | 1.92 ± 0.11 | 1.45 ± 0.11 | 2.14 ± 0.069
12 | PHLIIQNHNSKSTDNSA [IRR1] | 2.71 ± 0.047 | 2.88 ± 0.057 | 2.81 ± 0.05 | 2.78 ± 0.034
13 | PHLLKQGLAMVEKYAPD [RRP42] | 2.02 ± 0.13 | 2.35 ± 0.11 | – | –
14 | PHTVIRRKTTKQNSSSD [YDL088C/ASM4] | 3.14 ± 0.089 | 3.05 ± 0.079 | 3.01 ± 0.068 | 2.9 ± 0.043
15 | PIFNYIFTEKIYKSIFN [YJL039C/NUP192] | 1.33 ± 0.034 | 1.46 ± 0.04 | 1.41 ± 0.074 | 1.16 ± 0.039
16 | PIGRHEELLAQYESQAP [SWP82] | 2.35 ± 0.057 | 2.25 ± 0.063 | 2.07 ± 0.1 | 2.07 ± 0.037
17 | PINLENNDGSYGLFLKY [SRB8] | 3.07 ± 0.11 | 2.34 ± 0.075 | 2.18 ± 0.14 | 1.81 ± 0.069
18 | PINLPPQIAQLPLATQQ [SNF5] | 2.15 ± 0.071 | 2.49 ± 0.059 | 2.46 ± 0.089 | 2.27 ± 0.053
19 | PISISNAPTFNPKYDTS [YAR002W/NUP60] | 3.03 ± 0.076 | 3.08 ± 0.068 | 2.71 ± 0.059 | 3.07 ± 0.06
20 | PISKHSKQAIYTRATAS [RPS25A] | 1.86 ± 0.055 | 1.86 ± 0.044 | 1.64 ± 0.08 | 1.81 ± 0.038
21 | PKDTSAATMTSAPPPAL [RGR1] | 2.49 ± 0.1 | 2.59 ± 0.1 | 2.51 ± 0.069 | 2.85 ± 0.097
22 | PKELGGLGMISASHILI [PRP8] | 2.36 ± 0.072 | 2.67 ± 0.053 | 2.14 ± 0.084 | 2.41 ± 0.047
23 | PKFDVGALMALHGEGSG [RPS1A] | 2.01 ± 0.17 | 2.26 ± 0.092 | 2.23 ± 0.16 | 1.57 ± 0.089
24 | PKGVILYGAPGTGKTLL [RPT2] | 3.67 ± 0.27 | – | – | 3.13 ± 0.22
25 | PKKEYDDDAVRREVQIQ [NSL1] | 1.4 ± 0.18 | 2.11 ± 0.25 | 1.36 ± 0.29 | 2.38 ± 0.21
26 | PKKFGGKGARSRFQKSY [RPS16A] | 3.22 ± 0.12 | 3.31 ± 0.11 | 3.31 ± 0.13 | 2.93 ± 0.1
27 | PKLESVKWQYDPNNPVD [SNF12] | 2.38 ± 0.059 | 2.81 ± 0.055 | 2.21 ± 0.067 | 2.55 ± 0.031

Row | Sequence | protein stability index (doa10∆) | protein stability index (pdr5∆) | protein stability index (san1∆) | protein stability index (ubr1∆)
28 | PKNLSTPSTSSNGEFIP [CSE2] | 2.83 ± 0.049 | 2.87 ± 0.045 | 2.79 ± 0.039 | 2.93 ± 0.043
29 | PKNVKGEEDADEEETAE [RPN1] | 3.21 ± 0.17 | 3.16 ± 0.26 | 3.01 ± 0.14 | –
30 | PKSASNTSSKRQKKKPT [IRR1] | 2.78 ± 0.069 | 2.61 ± 0.072 | 2.65 ± 0.049 | 2.96 ± 0.072
31 | PKVSAGDSGISPEESKA [SIR4] | 3.44 ± 0.1 | 3.46 ± 0.13 | 2.98 ± 0.098 | 3.17 ± 0.059
32 | PLELSAPIGKHYVVLDT [DIS3] | 2.83 ± 0.1 | 2.78 ± 0.14 | 2.63 ± 0.086 | 2.39 ± 0.11
33 | PLKRAIWLIKCCYFIEW [SRB8] | 2.56 ± 0.1 | 2.12 ± 0.074 | 2.85 ± 0.097 | 2.77 ± 0.071
34 | PLKTELEANGRSLEKVN [SSN2] | 3.19 ± 0.12 | 3.34 ± 0.08 | 3.22 ± 0.1 | 3.55 ± 0.08
35 | PLLSNYASKINRAEGPE [RGR1] | 2.88 ± 0.12 | 2.8 ± 0.1 | 2.87 ± 0.12 | 2.55 ± 0.082
36 | PLQGIFHNAVFNSFRRF [QCR8] | 2.67 ± 0.064 | 2.47 ± 0.048 | 2.38 ± 0.054 | 1.96 ± 0.031
37 | PLQSIPEIGNRKINLFY [SWI1] | 1.51 ± 0.07 | 1.48 ± 0.072 | 2.54 ± 0.073 | 1.43 ± 0.064
38 | PLRENTNVLDVKDKEED [YDL116W/NUP84] | 3.07 ± 0.082 | 3.11 ± 0.1 | 3.25 ± 0.065 | 2.99 ± 0.11
39 | PLRMETIPILESDSKAT [DSN1] | 2.14 ± 0.062 | 2.54 ± 0.084 | 2.59 ± 0.14 | 2.27 ± 0.044
40 | PLSESLRLVDDDENNPS [RRP6] | 3.15 ± 0.11 | 3.12 ± 0.096 | 2.98 ± 0.084 | 3.08 ± 0.084
41 | PLSLTHRDKNKMDMICR [DIS3] | 3.24 ± 0.13 | 3.43 ± 0.16 | 3.23 ± 0.13 | 3.16 ± 0.18
42 | PMASSSSFGSESLTFNE [SWI1] | 3.15 ± 0.043 | 3.16 ± 0.041 | 3.14 ± 0.035 | 3.099 ± 0.029
43 | PMETLLSGLSADKPFTR [YML031W/NDC1] | 2.91 ± 0.05 | 3.04 ± 0.05 | 2.94 ± 0.037 | 2.85 ± 0.034
44 | PNFEASFVHGVVGQLFQ [SMC2] | 1.61 ± 0.098 | 2.56 ± 0.11 | 2.58 ± 0.1 | 3.18 ± 0.12
45 | PNFLIMQGKITKVLNMK [SMC2] | 2.73 ± 0.1 | 2.86 ± 0.07 | 2.85 ± 0.055 | 2.88 ± 0.063
46 | PNISHSNIDYQTLLANS [SNF2] | 3.33 ± 0.17 | 2.7 ± 0.18 | 2.58 ± 0.22 | 2.82 ± 0.11
47 | PNLIEKMVAKGLNDLVE [BRR2] | 2.51 ± 0.17 | 2.82 ± 0.21 | – | 2.99 ± 0.18
48 | PNNSRDDYKDLTCSLYE [IRR1] | 3.11 ± 0.069 | 2.88 ± 0.069 | 3.18 ± 0.052 | 3.24 ± 0.087
49 | PNPTPSMINSVSPTNVM [PGD1] | 2.21 ± 0.032 | 2.55 ± 0.037 | 2.32 ± 0.03 | 2.27 ± 0.028
50 | PNSNVELAGGNASLTIE [SMC1] | 2.91 ± 0.091 | 3.06 ± 0.2 | 2.95 ± 0.071 | 3.04 ± 0.27
51 | PNVSDKYYLEESNVNDS [NUT1] | 3.2 ± 0.26 | 2.85 ± 0.15 | 3.21 ± 0.096 | 3.17 ± 0.14
52 | PPLTYKNDTKILVLALE [PRP8] | 2.58 ± 0.057 | 2.48 ± 0.043 | 2.52 ± 0.055 | 2.04 ± 0.029
53 | PPPPGFEEDSDLALPPP [PRP8] | 3.22 ± 0.078 | 3.36 ± 0.07 | 3.19 ± 0.079 | 3.35 ± 0.057
